The target of one data set is MBP-BccP (S. flexneri) (UniProt P0ABE1).
The target in data set [1] is 6xHis-BioID R118G (Escherichia coli K-12) (UniProt P06709). The data set is described as follows: EMSA. The conditions noted are these: 50 mM Tris-HCl pH 8.0, 1 mM EDTA, 50 mM NaCl, 1 mM ATP, 1 mM MgCl2, 1 uM biotin, 10% glycerol; 30 min room temperature; 5% PAGE in 0.5x TAE at 4 C.
The target of data set [2] is 6xHis-BirA (Escherichia coli K-12) (UniProt P06709). The data set is described as follows: EMSA. The conditions noted are these: 50 mM Tris-HCl pH 8.0, 1 mM EDTA, 50 mM NaCl, 1 mM ATP, 1 mM MgCl2, 1 uM biotin, 10% glycerol; 30 min room temperature; 5% PAGE in 0.5x TAE at 4 C.
Data set [3] has as its system 6xHis-BirA (Escherichia coli K-12). The data set can be described thus: EMSA. The conditions noted are these: 50 mM Tris-HCl pH 8.0, 1 mM EDTA, 50 mM NaCl, 1 mM ATP, 1 mM MgCl2, 1 uM biotin, 10% glycerol; 30 min room temperature; 5% PAGE in 0.5x TAE at 4 C.
Data set [4] deals with 6xHis-BioID (Escherichia coli K-12). The data set can be described thus: EMSA. The conditions noted are these: 50 mM Tris-HCl pH 8.0, 1 mM EDTA, 50 mM NaCl, 1 mM ATP, 1 mM MgCl2, 1 uM biotin, 10% glycerol; 30 min room temperature; 5% PAGE in 0.5x TAE at 4 C.
In data set [5] the test system is 6xHis-TurboID (Escherichia coli K-12). The data set can be described thus: EMSA. The conditions noted are these: 50 mM Tris-HCl pH 8.0, 1 mM EDTA, 50 mM NaCl, 1 mM ATP, 1 mM MgCl2, 1 uM biotin, 10% glycerol; 30 min room temperature; 5% PAGE in 0.5x TAE at 4 C.

Consider “6×His-BioID (from UniProt P06709 1-321) (enzyme)”, for which the midpoint (t^50) of the in vitro biotinylation of MBP-BccP; 20 nM biotin ligase, 2 µM BccP, 37°C, streptavidin-HRP blot with MBP-BccP (S. flexneri) came out at 3.4 min. As for “6×His-TurboID (from UniProt P06709 1-321) (enzyme)”, the midpoint (t^50) of the in vitro biotinylation of MBP-BccP; 20 nM biotin ligase, 2 µM BccP, 37°C, streptavidin-HRP blot with MBP-BccP (S. flexneri) stood at 14.6 min. Take “GCCATGGGGCTTCTCCAAAACGTGTTTTTTGTTGTTAATTCGGTGTAGGCTTGTAAACCTAAATCTTTTCAATTTGGTTTACAAGTCGATTATGACAACGGACGATCTTGCC (double strand) [biotin operator probe (112 bp)]”: the values for the binding signal (% probe shifted at 50 nM protein) in data set [1] and in data set [2] were 41 and 93, respectively. As for biotin operator probe (112 bp), the binding signal (% probe shifted at 50 nM protein) in data set [3] worked out at 93; in data set [4], 41; in data set [5], 0.8.

(Values after PMC11580435.)
